# Columns and labels:
# MCR-1蛋白 [1] = assay: indirect ELISA; MCR-1 coated at 0.2 ug/mL; purified antibody (1 mg/ml) diluted two-fold from 1:1000; goat anti-mouse secondary
# MCR-1蛋白 [2] = assay: double-antibody sandwich ELISA; 1HD4 coated at 0.2 mg/ml as capture, HRP-labelled 1JA9 as detection, OD450
Binder,"效价 (ELISA titer, dilution of 1 mg/ml antibody) (dilution factor (1:x)) (MCR-1蛋白 [1])",检测抗原灵敏度 (dilution factor) (dilution factor (1:x)) (MCR-1蛋白 [2])
"鼠抗MCR-1蛋白单克隆抗体 1HD4 (antibody, V domains shown) VH: VKLQESGPELVKPGASVKVSCKASGYIFTCCKMYWVKQSHGKSLEWIGYFDPYNGDTSSNQKFKGKVTLTVDKSSSTAYMFLNSLTSEDSAVYYCASWLQNYYAMDYWGQGTSVTVSS VL: DVQMTQTTSSLSASLGDRVTISCRASQDISNYLNWYQQKPDGTVKLLIYYTSRLHSGVPSRFSGSGSGADYSLTISNLEEEDIATYFCQQGNTFPYTFGGGTKLEIK",> 1.28e+06,
"鼠抗MCR-1蛋白单克隆抗体 1JA9 (antibody, V domains shown) VH: VKLQESGPELVKPGASVKMSCRTSGYTFTSYIMHWVKQKPGQGLEWIGYFNPYTDGSKYNEMFNGKATLSSDKSSGTAYMEFSSLTSEDSAVYYCARGPYGNYAMDYWGQGTSVTVSA VL: EILLTQTPLSLPVSLGDQASISCRSSQNIVHSYGNPSLEWYLQKPGQSPKLLIYKVSNRFSGVPDRFSGSGSGTDFTLKISRVEAEDLGVYYCFQASHVPWTFGGGTKLEIKR",> 1.28e+06,5.12e+06
